The target in assay [1] is T1, Human TROP2 Protein, His Tag (Acro Biosystems) (human, UniProt P09758 27-274).
T1 construct: not shown: His tag
T1 sequence (looked up): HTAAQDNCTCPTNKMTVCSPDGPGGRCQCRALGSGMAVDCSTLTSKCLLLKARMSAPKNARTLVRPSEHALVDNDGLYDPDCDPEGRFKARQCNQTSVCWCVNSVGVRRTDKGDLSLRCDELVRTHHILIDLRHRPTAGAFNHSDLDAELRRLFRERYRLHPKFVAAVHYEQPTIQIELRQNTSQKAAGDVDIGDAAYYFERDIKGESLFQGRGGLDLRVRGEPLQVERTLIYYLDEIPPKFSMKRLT
The assay can be described thus: BLI (Octet). Background: In BLI a coated tip is dipped into the sample, and binding shifts an interference pattern.

The target in assay [2] is T2, Human TROP2 Protein, His Tag (human, UniProt P09758 27-274).
T2 construct: Bought protein; also called TACSTD2; not shown: His tag
T2 sequence (looked up): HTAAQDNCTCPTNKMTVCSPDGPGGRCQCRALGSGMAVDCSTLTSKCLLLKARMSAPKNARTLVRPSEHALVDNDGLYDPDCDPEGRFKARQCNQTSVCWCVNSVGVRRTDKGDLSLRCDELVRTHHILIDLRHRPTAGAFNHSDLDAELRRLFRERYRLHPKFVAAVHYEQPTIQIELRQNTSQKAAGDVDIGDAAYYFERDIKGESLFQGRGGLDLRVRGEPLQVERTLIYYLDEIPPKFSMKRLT
The assay can be described thus: BLI (Octet) [1/2]. The procedure, abridged: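 Antibody variants from day-4 expression supernatants, diluted in 1×PBST pH 7.4 by expression level, captured on anti-human Fc tips. Association with 50 nM human TROP2-His in PBST pH 7.4 for 120 sec; dissociation in PBST pH 7.4 or pH 5.4 for 300 sec. Curves examined for koff at each pH versus parent antibody.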

For assay [3], the target named is T3, TROP2 on TROP2-positive NCI-H1975 cells (human, UniProt P09758 27-323).
T3 sequence: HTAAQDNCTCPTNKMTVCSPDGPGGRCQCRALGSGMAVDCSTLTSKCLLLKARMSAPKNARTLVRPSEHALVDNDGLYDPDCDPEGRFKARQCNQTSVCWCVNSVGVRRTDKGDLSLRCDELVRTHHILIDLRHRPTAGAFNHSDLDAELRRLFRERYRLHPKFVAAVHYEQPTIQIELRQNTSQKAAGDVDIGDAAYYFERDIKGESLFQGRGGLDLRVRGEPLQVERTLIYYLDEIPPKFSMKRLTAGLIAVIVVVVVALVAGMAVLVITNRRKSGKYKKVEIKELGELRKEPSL
The assay can be described thus: cell-based or functional assay.

Assay [4] concerns the target T4, Human TROP2 Protein, His Tag, Acro Biosystems (human, UniProt P09758 27-274).
T4 construct: Bought protein; not shown: His tag
T4 sequence: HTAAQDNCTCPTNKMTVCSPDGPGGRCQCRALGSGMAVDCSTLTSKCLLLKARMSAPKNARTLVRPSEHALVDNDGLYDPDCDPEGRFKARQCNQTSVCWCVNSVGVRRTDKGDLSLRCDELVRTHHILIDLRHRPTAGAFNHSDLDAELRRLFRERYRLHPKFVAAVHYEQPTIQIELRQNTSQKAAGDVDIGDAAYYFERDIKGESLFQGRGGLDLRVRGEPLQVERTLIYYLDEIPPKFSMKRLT
The assay can be described thus: Octet (BLI).

For assay [5], the target named is T3, TROP2 on TROP2-positive NCI-H1975 cells. The assay can be described thus: binding to NCI-H1975 cells at pH 6.4, maximal MFI.
The target is the same in assay [6]. In words: cell-based or functional assay. The source holds these as a separate data set.
The target in assay [7] is T5, Human TROP2 Protein, His Tag (Acro Biosystems) (human, UniProt P09758 27-274).
T5 construct: also called TACSTD2; not shown: His tag
T5 sequence (looked up): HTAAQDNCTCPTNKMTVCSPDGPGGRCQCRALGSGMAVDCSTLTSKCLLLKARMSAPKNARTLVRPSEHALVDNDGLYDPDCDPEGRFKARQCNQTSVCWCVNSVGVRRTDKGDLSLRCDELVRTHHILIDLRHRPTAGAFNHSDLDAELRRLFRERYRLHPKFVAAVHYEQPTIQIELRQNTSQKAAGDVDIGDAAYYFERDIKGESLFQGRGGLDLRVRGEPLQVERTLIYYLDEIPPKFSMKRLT
The assay can be described thus: BLI (Octet) [1/2].

B1: MYT12406 (antibody, V domains shown)
VH: QVQLVQSGAEVKKPGASVKVSCKASGYTFTTAGMQWVRQAPGQGLEWMGWINTHSGVPKYAEDFKGRVTISADTSTSTAYLQLSSLKSEDTAVYYCARSGFGSSYWYFDVWGQGTLVTVSS
VL: DIQMTQSPSSLSASVGDRVTITCKASQDVSTAVAWYQQKPGKAPKLLIYSHSYRYTGVPSRFSGSGSGTDFTLTISSLQPEDFAVYYCHQHHITPLTFGQGTKLEIK
notes: datopotamab VL 51, 89, 92 substituted
As for B1, the binding result in assay [1] is given as “no binding (tested: 50 nM)”.

B2: MYT11679 (antibody, V domains shown)
VH: QVQLVQSGAEVKKPGASVKVSCKASGYTFTTAGMQWVRQAPGQGLEWMGWINTHSGVPKYAEDFKGRVTISADTSTSTAYLQLSSLKSEDTAVYYCARSGFGSSYWYFDVWGQGTLVTVSS
VL: DIQMTQSPSSLSASVGDRVTITCKAHQDVSTAVAWYQQKPGKAPKLLIYSASYRYTGVPSRFSGSGSGTDFTLTISSLQPEDFAVYYCQQHYITPLTFGQGTKLEIK
notes: IgG from supernatant; His at LCV position 26; also called datopotamab variant L1 03
Turning to B2, the binding result in assay [2] is “binds”.

B3: MYT12407 (antibody, V domains shown)
VH: QVQLVQSGAEVKKPGASVKVSCKASGYTFTTAGMQWVRQAPGQGLEWMGWINTHSGVPKYAEDFKGRVTISADTSTSTAYLQLSSLKSEDTAVYYCARSGFGSSYWYFDVWGQGTLVTVSS
VL: DIQMTQSPSSLSASVGDRVTITCKASQDVSTAVAWYQQKPGKAPKLLIYSAHYRYTGVPSRFSGSGSGTDFTLTISSLQPEDFAVYYCHQHHITPLTFGQGTKLEIK
notes: datopotamab VL 52, 89, 92 substituted
Regarding B3, the binding result in assay [1] is recorded as “no binding (tested: 50 nM)”.

B4: MYT11678 (antibody, V domains shown)
VH: QVQLVQSGAEVKKPGASVKVSCKASGYTFTTAGMQWVRQAPGQGLEWMGWINTHSGVPKYAEDFKGRVTISADTSTSTAYLQLSSLKSEDTAVYYCARSGFGSSYWYFDVWGQGTLVTVSS
VL: DIQMTQSPSSLSASVGDRVTITCKHSQDVSTAVAWYQQKPGKAPKLLIYSASYRYTGVPSRFSGSGSGTDFTLTISSLQPEDFAVYYCQQHYITPLTFGQGTKLEIK
notes: IgG from supernatant; His at LCV position 25; also called datopotamab variant L1 02
With B4, the binding result in assay [2] is “binds”.

B5: MYT13425 (antibody, human IgG1, V domains shown)
VH: QVQLQQSGSELKKPGASVKVSCKASGYTFTNYGMNWVKQAPGQGLKWMGWINTYTGEPTYTHDFKGRFAFSLDTSVSTAYLQISSLKADDTAVYFCARGGFGSSYWYFDVWGQGSLVTVSS
VL: DIQLTQSPSSLSASVGDRVSITCKASQDVHIAVAWYQQKPGKAPKLLIYSHSYRYTGVPDRFSGSGSGTDFTLTISSLQPEDFAVYYCQQHYHTPLTFGAGTKVEIK
notes: also called sacituzumab HC-LC pairing variant; Sacituzumab pH variant
Turning to B5, in assay [3], the “Cytotox Fold over datopotamab (FOD)” value stood at 1.39 fold over datopotamab. Also, the affinity in assay [4], expressed as Kd, was 3.99 nM. Further, the “Max MFI (@ pH 6.4)-H1975” value in assay [5] was 11200 MFI. In assay [6], the “FOW H1975 (10 nM)” value worked out at 1.94 fold over parent antibody.

B6: MYT13250 (antibody, V domains shown)
VH: QVQLQQSGSELKKPGASVKVSCKASGYTFTNYGMNWVKQAPGQGLKWMGWINTYTGEPTHTDDFKGRFAFSLDTSVSTAYLQISSLKADDTAVYFCARGGFGSSYWYFDVWGQGSLVTVSS
VL: DIQLTQSPSSLSASVGDRVSITCKASQDVSIAVAWYQQKPGKAPKLLIYSAHYRYTGVPDRFSGSGSGTDFTLTISSLQPEDFAVYYCQQHYHTPLTFGAGTKVEIK
notes: Sacituzumab HC-LC pairing variant
Regarding B6, the binding result in assay [7] is reported as “binds”.

B7: MYT12405 (antibody, V domains shown)
VH: QVQLVQSGAEVKKPGASVKVSCKASGYTFTTAGMQWVRQAPGQGLEWMGWINTHSGVPKYAEDFKGRVTISADTSTSTAYLQLSSLKSEDTAVYYCARSGFGSSYWYFDVWGQGTLVTVSS
VL: DIQMTQSPSSLSASVGDRVTITCKASQDVSTAVAWYQQKPGKAPKLLIYSHHYRYTGVPSRFSGSGSGTDFTLTISSLQPEDFAVYYCQQHHITPLTFGQGTKLEIK
notes: datopotamab VL 51, 52, 92 substituted
Turning to B7, the binding result in assay [1] is recorded as “no binding (tested: 50 nM)”.

B8: MYT11680 (antibody, V domains shown)
VH: QVQLVQSGAEVKKPGASVKVSCKASGYTFTTAGMQWVRQAPGQGLEWMGWINTHSGVPKYAEDFKGRVTISADTSTSTAYLQLSSLKSEDTAVYYCARSGFGSSYWYFDVWGQGTLVTVSS
VL: DIQMTQSPSSLSASVGDRVTITCKASHDVSTAVAWYQQKPGKAPKLLIYSASYRYTGVPSRFSGSGSGTDFTLTISSLQPEDFAVYYCQQHYITPLTFGQGTKLEIK
notes: IgG from supernatant; His at LCV position 27; also called datopotamab variant L1 04
Regarding B8, the binding result in assay [2] was “binds”.

The values are drawn from patent US20260274985A1 (MYTHIC THERAPEUTICS, published 2026).
